Columns and labels:
[1] = molecular target: the molecule itself; experiment: SDS-PAGE and western blot; heparin fraction of HeLa nuclear extract, blot probed for PUF60
[2] = molecular target: the molecule itself; experiment: SDS-PAGE and western blot; His-tagged PUF60 (~3.6 pmol) purified from HEK-293E cells, blot probed for PUF60

Protein	stoichiometry N [1]	stoichiometry N [2]
PUF60 (endogenous, heparin fraction of HeLa nuclear extract) (natural protein, human (endogenous in HeLa), UniProt Q9UHX1 1-559, looked up, PUF60 of HeLa nuclear extract; Seen as a monomer and as an SDS-resistant dimer; also called FIR; RoBP1; source: endogenous, HeLa nuclear extract, fractionated (20-40% ammonium sulfate, CsCl gradient, Poros heparin column)) MATATIALQVNGQQGGGSEPAAAAAVVAAGDKWKPPQGTDSIKMENGQSTAAKLGLPPLTPEQQEALQKAKKYAMEQSIKSVLVKQTIAHQQQQLTNLQMAAVTMGFGDPLSPLQSMAAQRQRALAIMCRVYVGSIYYELGEDTIRQAFAPFGPIKSIDMSWDSVTMKHKGFAFVEYEVPEAAQLALEQMNSVMLGGRNIKVGRPSNIGQAQPIIDQLAEEARAFNRIYVASVHQDLSDDDIKSVFEAFGKIKSCTLARDPTTGKHKGYGFIEYEKAQSSQDAVSSMNLFDLGGQYLRVGKAVTPPMPLLTPATPGGLPPAAAVAAAAATAKITAQEAVAGAAVLGTLGTPGLVSPALTLAQPLGTLPQAVMAAQAPGVITGVTPARPPIPVTIPSVGVVNPILASPPTLGLLEPKKEKEEEELFPESERPEMLSEQEHMSISGSSARHMVMQKLLRKQESTVMVLRNMVDPKDIDDDLEGEVTEECGKFGAVNRVIIYQEKQGEEEDAEIIVKIFVEFSIASETHKAIQALNGRWFAGRKVVAEVYDQERFDNSDLSA	2	
His-tagged PUF60 (PUF60S, HEK-293E) (natural protein, human, UniProt Q9UHX1-2 1-542, looked up, PUF60S, the isoform of human PUF60 that lacks alternative exon 5; amplified from pGAD-GH-RoBPI-47,3 with the primers PUF60Hisstart and PUFresmutD; About 60% of the protein ran as an SDS-resistant dimer; also called recombinant PUF60; PUFS; source: HEK-293E, transiently transfected with pTT3-HisPUFS, purified (Ni-NTA agarose)) MATATIALQVNGQQGGGSEPAAAAAVVAAGDKWKPPQGTDSIKMENGQSTAAKLGLPPLTPEQQEALQKAKKYAMEQSIKSVLVKQTIAHQQQQLTNLQMAAQRQRALAIMCRVYVGSIYYELGEDTIRQAFAPFGPIKSIDMSWDSVTMKHKGFAFVEYEVPEAAQLALEQMNSVMLGGRNIKVGRPSNIGQAQPIIDQLAEEARAFNRIYVASVHQDLSDDDIKSVFEAFGKIKSCTLARDPTTGKHKGYGFIEYEKAQSSQDAVSSMNLFDLGGQYLRVGKAVTPPMPLLTPATPGGLPPAAAVAAAAATAKITAQEAVAGAAVLGTLGTPGLVSPALTLAQPLGTLPQAVMAAQAPGVITGVTPARPPIPVTIPSVGVVNPILASPPTLGLLEPKKEKEEEELFPESERPEMLSEQEHMSISGSSARHMVMQKLLRKQESTVMVLRNMVDPKDIDDDLEGEVTEECGKFGAVNRVIIYQEKQGEEEDAEIIVKIFVEFSIASETHKAIQALNGRWFAGRKVVAEVYDQERFDNSDLSA		2
